To fix the notation:
B1: F1*; the commonest letter at each place (parent)
chain: GAGACCGCAACTGAAAAGTTGTTATCACTTGTCGTAAGACACTTTGGATGGGTTGAAGTTCTGCACGTAGAAGCAAAAGGC

In the data set the parent is B1. The data set can be described thus: fraction ligated after 30 min (ligated reads / total reads); higher = more ligase activity. The following applies: with F1*sub RNA substrate (template-directed ligation), 42 °C. Summed up: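 The ligase ribozyme variants were produced by PCR amplification of oligo-pool templates, T7 transcription and purification on gel. Their ligated and unligated forms were gel-separated, then reverse transcribed with barcoded primers before MiSeq sequencing. Core bases were filtered at a quality of ≥20, and fraction ligated per variant was ligated reads over total reads.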
For the variant GAGACCGCAACTGAAAAGTTGTTATCACTAGTCGTAAGACACTTTGGACGGGTTGAAGTTCTGCACGTAGAAGCAAAAGGC, the fraction ligated was determined as 0.467. For GAGACCGCAACTGAAAAGTTGTTATCACTAGTCGTAAGACACTTTGGAAGGGTTGAAGTTCTGCACGTAGAAGCAAAAGGC, the fraction ligated came to 0.694. Consider GAGACCGCAACTGAAAAGTTGTTATCACTAGTCGTAAGACACTTTGGAGGGGTTGAAGTTCTGCACGTAGAAGCAAAAGGC, for which the fraction ligated is 0.754.

Consider GAGACCGCAACTGAAAAGTTGTTATCACTCGTCGTAAGACACTTTGGATGGGTTGAAGTTCTGCACGTAGAAGCAAAAGGC, for which the fraction ligated was determined as 0.807.

Regarding GAGACCGCAACTGAAAAGTTGTTATCACTCGTCGTAAGACTCTTTGGATGGGTTGAAGTTCTGCACGTAGAAGCAAAAGGC, the fraction ligated amounted to 0.805. For the variant GAGACCGCAACTGAAAAGTTGTTATCACTCGTCGTAAGACGCTTTGGATGGGTTGAAGTTCTGCACGTAGAAGCAAAAGGC, the fraction ligated was found to be 0.828.

With GAGACCGCAACTGAAAAGTTGTTATCACTCGTCGTAAGACCCTTTGGATGGGTTGAAGTTCTGCACGTAGAAGCAAAAGGC, the fraction ligated stood at 0.752. For the variant GAGACCGCAACTGAAAAGTTGTTATCACTCGTGGTAAGACACTTTGGATGGGTTGAAGTTCTGCACGTAGAAGCAAAAGGC, the fraction ligated came out at 0.837.

Take GAGACCGCAACTGAAAAGTTGTTATCACTCGTTGTAAGACACTTTGGATGGGTTGAAGTTCTGCACGTAGAAGCAAAAGGC: the fraction ligated came out at 0.84. The value for GAGACCGCAACTGAAAAGTTGTTATCACTCGTAGTAAGACACTTTGGATGGGTTGAAGTTCTGCACGTAGAAGCAAAAGGC was 0.824; that for GAGACCGCAACTGAAAAGTTGTTATCACTCGTCGTAAGTCACTTTGGATGGGTTGAAGTTCTGCACGTAGAAGCAAAAGGC was 0.764; that for GAGACCGCAACTGAAAAGTTGTTATCACTCGTCGTAAGCCACTTTGGATGGGTTGAAGTTCTGCACGTAGAAGCAAAAGGC was 0.765.

As for GAGACCGCAACTGAAAAGTTGTTATCACTCGTCGTAAGGCACTTTGGATGGGTTGAAGTTCTGCACGTAGAAGCAAAAGGC, the fraction ligated came to 0.782. The value for GAGACCGCAACTGAAAAGTTGTTATCACTAGTCGTAAGACACTTCGGATGGGTTGAAGTTCTGCACGTAGAAGCAAAAGGC was 0.746; that for GAGACCGCAACTGAAAAGTTGTTATCACTAGTCGTAAGACACTTAGGATGGGTTGAAGTTCTGCACGTAGAAGCAAAAGGC was 0.604. As to GAGACCGCAACTGAAAAGTTGTTATCACTAGTCGTAAGACACTTGGGATGGGTTGAAGTTCTGCACGTAGAAGCAAAAGGC, the fraction ligated was determined as 0.211. As to GAGACCGCAACTGAAAAGTTGTTATCACTCGTCGTAAGACACTTTGGATGGGTTGACGTTCTGCACGTAGAAGCAAAAGGC, the fraction ligated is 0.777. As for GAGACCGCAACTGAAAAGTTGTTATCACTCGTCGTAAGACACTTTGGATGGGTTGATGTTCTGCACGTAGAAGCAAAAGGC, the figure is 0.769; as for GAGACCGCAACTGAAAAGTTGTTATCACTCGTCGTAAGACACTTTGGATGGGTTGAGGTTCTGCACGTAGAAGCAAAAGGC, 0.818; as for GAGACCGCAACTGAAAAGTTGTTATCACTCGTCGTATGACACTTTGGATGGGTTGAAGTTCTGCACGTAGAAGCAAAAGGC, 0.805. GAGACCGCAACTGAAAAGTTGTTATCACTCGTCGTAGGACACTTTGGATGGGTTGAAGTTCTGCACGTAGAAGCAAAAGGC: the fraction ligated was 0.83.

In the case of GAGACCGCAACTGAAAAGTTGTTATCACTCGTCGTACGACACTTTGGATGGGTTGAAGTTCTGCACGTAGAAGCAAAAGGC, the fraction ligated was 0.794. The value for GAGACCGCAACTGAAAAGTTGTTATCACTCGTCGTAAGACACTTTGGCTGGGTTGAAGTTCTGCACGTAGAAGCAAAAGGC was 0.757; that for GAGACCGCAACTGAAAAGTTGTTATCACTCGTCGTAAGACACTTTGGGTGGGTTGAAGTTCTGCACGTAGAAGCAAAAGGC was 0.329; that for GAGACCGCAACTGAAAAGTTGTTATCACTCGTCGTAAGACACTTTGGTTGGGTTGAAGTTCTGCACGTAGAAGCAAAAGGC was 0.346. For GAGACCGCAACTGAAAAGTTGTTATCACTCGTCGTGAGACACTTTGGATGGGTTGAAGTTCTGCACGTAGAAGCAAAAGGC, the fraction ligated came to 0.823. For GAGACCGCAACTGAAAAGTTGTTATCACTCGTCGTCAGACACTTTGGATGGGTTGAAGTTCTGCACGTAGAAGCAAAAGGC, the fraction ligated was determined as 0.801. GAGACCGCAACTGAAAAGTTGTTATCACTCGTCGTTAGACACTTTGGATGGGTTGAAGTTCTGCACGTAGAAGCAAAAGGC: the fraction ligated came out at 0.816. As to GAGACCGCAACTGAAAAGTTGTTATCACTAGTCGTAAGACACTCTGGATGGGTTGAAGTTCTGCACGTAGAAGCAAAAGGC, the fraction ligated is 0.828. For the variant GAGACCGCAACTGAAAAGTTGTTATCACTAGTCGTAAGACACTATGGATGGGTTGAAGTTCTGCACGTAGAAGCAAAAGGC, the fraction ligated is 0.855.

For the variant GAGACCGCAACTGAAAAGTTGTTATCACTAGTCGTAAGACACTGTGGATGGGTTGAAGTTCTGCACGTAGAAGCAAAAGGC, the fraction ligated came to 0.825. Consider GAGACCGCAACTGAAAAGTTGTTATCACTCGTCGTAAGACACTTTGGATGGGTTGCAGTTCTGCACGTAGAAGCAAAAGGC, for which the fraction ligated was found to be 0.763. In the case of GAGACCGCAACTGAAAAGTTGTTATCACTCGTCGTAAGACACTTTGGATGGGTTGGAGTTCTGCACGTAGAAGCAAAAGGC, the fraction ligated was 0.764. Regarding GAGACCGCAACTGAAAAGTTGTTATCACTCGTCGTAAGACACTTTGGATGGGTTGTAGTTCTGCACGTAGAAGCAAAAGGC, the fraction ligated amounted to 0.749.
